Assay results from the DeepSol protein solubility set.

Assay: soluble on expression in E. coli; label from the status in PepcDB or PDB records

Soluble on expression in E. coli, not soluble:
MGSDKIHHHHHHAWGAKDAEVGKAWKGWKKGQFQIHLIYTGVSESMFLIFPDGTTMLLDCGDHNAVGRGKLAVPVLPNPDRHAGEWISRYVRRVNPQKDYVDYMMLTHYHSDHGGNNKFYARKETRDGKDYYLSGFSQAAEYLTFGKAFDRCWPDYNDPLPLTQEAADAFEHMKDFYDYMLAHKKMEIEKFCLGETNQIAMKKDATAYPGFSVRNICANGRIADKEGNIRDLYAERKKSNPVKFSENGMSLGMIFTYGDFKFYTAGDFSDGWELPNGKRFEIEDAIADVVEPVSVAKINHHGHKSMTDKLVAALRPRVVVNNVWDQLHTLPSVMERFYNRNLYPGERIVCPTVFPAERRAEDAGQPWLDILNPSSFDAGHVIVNVEEGGKDYSVTYLTANDESMTVKSVMRFKS
MGSDKIHHHHHHDAGAPAFLSAGRVADGAYNLYGLDRRGRPLFHLPIPDRGHAAAAHPQRAEAVAFARRPGRFALVLNCVSGAEIARLSAPEGRHFYGHGAFDAEGRVLFTTENDYEAGQGRIGLWDAGAGYRRIGEVASGGVGPHDIRLMPDGQTLVVANGGVETHPDTGRVKLNLPVMQPNLSYLSLAGEVLEVVRMPPEHRMNSIRHLDLRADGLVAFAMQWQGEGTELRPVLGLHRRGTAPVAVTGNEAEMRAMNGYGGSVIFYDQGRRVAVSSPRGGIVQLSDVAAGRIIGGVAITDVCGLGVTGGGLVASSGSGVFTRVGGKEASRSEIAWDNHLVAVNRA
MGSDKIHHHHHHDDHQGIIPLPPVENAFQEKYPDAKNPVFEIEGNYYVVDFNNGGSETTAWFTDQGIWMMEKIDISFAQLPAAVSTAFKQSFYSNWTVDDTYAINRLNMGIVYKIEAEQSNSEVDLYYSQYGNLIKAVDDEINNDAPIVIPKEVSNLMEITFANAELLDIQQNSLGYELDMIDNQIYKVAQLNKDYRWQSTTWAMSEQEVPQIVMQGFESSAYASDKVQSIYTLLNANGTFYLFKVSHNGQDKTITFDVFGNIV
MGSDKIHHHHHHDGDDMSSCSSHSSFGSEYSEENKVNCTIDNFPVQAIALERCDGTLDSLFTKENLAMKRPQLRSAMFQIVMSLRVLQKAFRFTHNDLHTNNVVWCATDRKYLFYKHNSKYYRVPTFGRIFKIIDFGRAIYRFRGETMCSDSYHPSGDAGSQYNCEPYFNPNKPLLEPHFGFDLARLGCSLYELVDAEDVDDNGIINEEKLGDVERMIVSWCRDDKGRNILFKRDGDERYPGFKLYKMIARTSHDHTPEKMLAGYVFDTYLMAAKKCKKQERLMDVDAIPDYTEVVVGGDGKEVNATS
MGSDKIHHHHHHEDTTSSPEEDPLAPQNDDADLLLKPLIAKDPRTRGQRGPFAAMTGSYGRGGYGGSGGGAFGGFNGGYGQGGYGGGGDFGGGMGGGGYGGGGYGGGGDGGGGYGGYGGGGYGGMGGGPGGYGMGGYGGGGGGGGDFGGYGGGGMGGGGYGGGGDGGYGGGGFGGGGMGGYGGGMGGGGYGGGGMGGGGYGGGGDGGYGPSGGYGGGYGPGGGYGMGGGGGGGGCPNGECRGKK
MGSDKIHHHHHHEELEYKGMNTLQISNVDDLISFYQYADDRIPLISGHRGGRGKGYPENSMETFENTLSYTPATFEIDPRLTKDSVIVLFHDDTLERTSNGTGKVSDYTWEELQNFRLKDPEGNITNYRIPTLEEAIRWARGKTILILDKKDVPMERTAQLITDMQAEPYVMITVHDGASARFFYEKNPNFMFEAFVKTKEAVQDYEDNGIPWSHIMAYVGPKITPEVREVIDMLHERGVMCMISTAPSDDKLSTPESRAEAYRMIIRQGVDIIESDRPIEVAEAISSLIPVSSSKGKFFSTL
MGSDKIHHHHHHEPVSSISDANYWKSPDLFKAFNIGLHGLLRSQSSYNIFVLGEPRSDIYGDQPFGGEATQGVERFSYNTINAEFTGISNFANFYTTLNQINLMIRRTNETDLLGEAEKNYYLGQAYGLRAYIYFHLLRSWGDVIITTEPTLGSELDISHLDKAASPASEVMDLIKKDIDASEKAFGGDYSYKQGKCYWSKPATLMLKGEVYLWSGRQMGGGTGDYTVAKTALQDLQQNGNLKLQEKFTDVFSFNNKENSEMIFALHSGKEDDFMMWRDYNWRNNMVPQREYMAGYCDETGTPFLEIPGYNLQGLMRYQVKKDHYLKSFREGDTRLKGTLKAVYKKHEDGTLEYIAPIQYKFQGTTLEGSNERSWYDDYPIYRYADALLLLAEAKALLGEDPSTEINAVRERAYGSEYFNAHKNEVAYPNDKGSFYNDNPFEAGDENVMEAILKERLREFFFEGKRWYDLRRFGKDYVLKYTTAQESRLLWPINEGALTNNPALKQTPGY
MGSDKIHHHHHHFVSIELKDRSLVNNQYKGKIKSANLSVDYEINQVMKDIDKLGLNTVNVPIIINVESINSDIMSIDNNSKEKAIKLIKKLNKKGISTILEAYPWIENGKLYETDWNPINKKRFFYTWQNAILNELIIDVANPLDVNVLNIGSNFVHLEEYQQNWGEIIDFVQSKFDGLVTYRTNWWYTKKDDLSSKLFYEQKLNNNFFDKLDFISIAAYFELSNKPVNTVDELISALHSSTVNNRGQNIKQEIYNLYKAHRKPIFFGELGFSNRESASSQPWNHTPSKAVNGEEQARCFEAYKKVFENEDWINGFSVFCVGKIDDEKNFYPSKESIKVIKSWYE
MGSDKIHHHHHHGASVQDLSNTKDAIVESETTLAENNNEYSNKNSLFYSDISSYEIFTDVNSEAALKNLYYNIDEFIDSDSSDVIVKGNIIEIEYVYIDGCSYSVLTVDVERAYKGEVQETITVYEDGGYTRLSDEKEQIEAHADLSQYTEEEMENLLINHTFMGAEHSNVGDTVILFLKTNEGSILGDSYRINCSVFGRYTLNKDSYIRPEFIVENDNPEKITTYSNMDTFEFSVSKSMLEDKLSQQ
MGSDKIHHHHHHGCEKEKSHTVLELFSESQSLSPKKDFYVNEDSIAIIEGLSCDGKNLIVNDYHSGCCYTLFDKKSGEYIARFGTIGQGPAELPSPCYGYLTESDFTVFDDQTRIVMKYSLDSLRNSRKKDGSPVRLAQYKIPEAQISKLIAIDDTTFLCAGTYKSRYQYLLFNKNDSVLDYGVDVYNAADSAFQTYTRYLSNQGNLVMNPEKHTFAGSINFSSNIDFFEIVNNKIELIKSLRLGDPINKPVNEEGIYYVDLTENTQTGYIDLSATSKYVYALYSDKKMYENNRKSDTVLVFDWDGNPIKKYSLDTDAYYIAVDSTQQSLFAAVKNSSSGWKIICYALD
MGSDKIHHHHHHGQPSNDKKNVLPDWAFGGFERPQGANPVISPIENTKFYCPMTQDYVAWESNDTFNPAATLHDGKIVVLYRAEDKSGVGIGHRTSRLGYATSSDGIHFKREKTPVFYPDNDTQKKLEWPGGCEDPRIAVTAEGLYVMTYTQWNRHIPRLAIATSRNLKDWTKHGPAFAKAYDGKFFNLGCKSGSILTEVVNGKQVIKKIDGKYFMYWGEEHVFAATSEDLVNWTPYVNTDGSLRKLFSPRDGHFDSQLTECGPPAIYTPKGIVLLYNGKNSASRGDKRYTANVYAAGQALFDANDPTRFITRLDEPFFRPMDSFEKSGQYVDGTVFIEGMVYYKDKWYLYYGCADSKVGMAIYNPKKPAAADPLP
MGSDKIHHHHHHILFELCFGLAVAQKNLGFIHNDLHSDNIMFKKCQQQFKYYQFHNKFFKVPTWCRETKVIDFARGILKVGKTTYFSDVFKNEGDAGGQYQYLNSQKNKKFNFHFDLARLATTIREFTENKKELQEIDNLLVDWCLNKNGDNFLEMDDDFSLYVMIASTADKCLPKDQIDNKIFRDFLISKEDIPAGEIIY
MGSDKIHHHHHHINKDNITTDTAEESKQQDSNKKQELPTATYMGGSNTITEVCDELGSAGASHVDTFKEWVTDFADSAGKNAKLKDTWSDAYKMKADTVKCMDGWEKKHDYSDADCRMTAFLLLDGLLHAQSTEDSYSGTYLMFDTEAIDNVDRYEIIRQNKDMFTTLYGEKSITDDKHPEKTFSDNWKKYGFQIDSNCISLISIAIYDPDSDAMFVGHTGVLIKYSDYYLFVEKIAFEQPYQATKVNNMDELLSILSLRPEYFGEEKEAGPFVYNNGDYVGTLELQG
MGSDKIHHHHHHISNNLANSSTIGYKTSNASFYSLVTGTGSTSNFTGAGVVASATQNVINQGVIVGTQNVTDLAVDGKGMFIVTDRSGSNELYYTRAGDFYPNADGDLVNSNNYYLQGYPTDRNGVPLTNTGNSGASLETINLAGATGAAKATSEMSIQAVLPAQATAGDSTAVPPVAAYTSSSDVEIYDSLGVAHTMTVKWTKMSDTKWTMTLYDPKLSSDMTGDATGAISSTTTGVTDVPANAGPPATSHGIAVDVEFTDQGLLKTPSVLALKITPDASNGTGAAISEIALNLGTAGKANGLSTYSNEDSDGKPAVDLKKVVQDGVTYGTYYSNTISKAGLVYANFTNGISYPIYQVPLAMFSNVNGLEAVSGTAYSATVKSGTPTYVTAGTGGSGGVSSGSVESSTVDTAAEFSKLIVSQQAYSAATQIISSNQEMFQNLISAKR
MGSDKIHHHHHHKDPVINDLKDSEGNNISFTLNAPNNSSYTLMPENASSIIDIFTCEQPDYGFAAGVTYTVQVCEGGTEFEKFESLPTTGSGEKVLIKTFELNDAMNNLGMVNPTVAYNVDFRLKAFINDSVPELYSNTVNMAITPYSGARTQVYFVGDIFDNGWNNNDPSMRIFADDDVNNMLFTYTGFVKAGSAFKIIQTPGDWGIQWGYDSDGALSNDGGSGNIEGFTQDGYYTITLDLAGNKYSIEPYTGATTEYKQISLIGDFNDWGGDLDLQQASYDKHIWIGEKIEIPSDGGLKLRADHDWAVSFGGSNSLWNDKQGQFAKFDGGDNVKVSAGTYFIKFNDLTKHIILLAE
MGSDKIHHHHHHKEKSTVAVLPFTVHSADNIDYVKQGISDMLTSRIAVEGKISVASKDLVQEAIKGRTTRDLTPEEMNALGKKLNVDYIVSGSITKIGNSLSIDGKLMDLAAARSTVGIFAQTQGLDEVIPKINDFSQRIVQHITGSTPSDFSSPAMELPAPSSAAAVADKPPQRSRESEIISGMRTSRKGTFTSIINPDFIDAARPLDRKGFWMSQKFPTEFRGMAIGDVNGDKLQEVVVIDRSNLYVYQRKGDDFKLLQKIPGKTHDNYLAVDVADINQNGIMEIFVTNMNRNTLASFVTEWQDGKYIQTAKDLRLFLRVIEPSIAAPQLLGQGFGLDNPFNTPIHEVIWDGKHYRAATRMKIPEGLSVYGLTLDDLGMGGSEKVISLDDYDYIRIYQQTEKPLSRLNVFGGSDELIWKSDEVFGGSNTYVEHAGSTVPGDEVRRTYINLRILTYDINKDGKKELILVKNLSAVGRVLKNVKLFTSSEVYNLEWDGLGLLENWKTRKINGYVADYQFKDIDNDGQNEIVLALVLSTGATLQNRSAFVAYKLSPQQ
MGSDKIHHHHHHKKVIKTMMIAGQDGSHYWRGACEAMKQILENSGMFKVDFVFTPDFGGDINTFKPDFAKYNLVVVNYGGEVWPEPVQKAFENYVADGGGVVIIHSSVVPMAGWKAYNEIIGMGAWEGRNEKDGPYLYWKEGKYVYDYTPGYAGYHGLQHETILEHRAPEHPILKGLPIRWKHFKDEIYTRLRGPVRNVEILATAYERGRHEPLMWTVKWGKGRVFVDLLGHCGNDPNMIYSMECTGFQVTLLRGAEWAATGEVTQEAPRDFPLEDTCTLRPEFKAPFHATN
MGSDKIHHHHHHKLFAAHGVDKVRLTGGEPTIRKDIVHIVEGISSTPGIKEVGITTNGLVLQRFLPQLRDAGLTKINISIDSLDREKFAKMTRRDGFDKVWKAIELARGYYPKVKLNVVVLKHQNENEVVDFVNLTKDRNLDVRFIEFMPFGGNEFKNDNFIGYREMLNLIVDKYGDGVIRLSDSPNDTTKAYKIDGFQGQFGFITSMSDHFCNTCNRLRITADGNL
